This series can be described thus: Optimization of peptide reporters for LC/MS detection. Particulars: compared with other peptides of the same proteolytic-product group with longer or less hydrophilic caps; FIG. 8B. The source says:
A series of peptides (A1-A14) of different sequence were investigated to determine optimal sequence length and charge density that would enable facile detection via LC/MS. Three representative proteolytic products, sequences GGVVVLS (SEQ ID NO: 19), GGPVG (SEQ ID NO: 13), and GGdFPipR (SEQ ID NO: 17) were selected and appended with peptide caps of differing length and charge density (FIG. 8A). The sequences were then detected via LC/MS. […] A hydrophilic molecule is a molecule that can transiently hydrogen-bond with water and is, thus, soluble in water and, in some embodiments, in other polar solvents. Hydrophilicity of peptides can be modulated according to methods well known in the art. In some embodiments, removal of the fluorescein tag will increase the hydrophilicity of the peptides reported in this disclosure. In some embodiments, modification of the sequences to contain positively charged residues (Histidine, Lysine, and Arginine) and/or negatively charged residues (glutamic acid and aspartic acid) will increase the hydrophilicity. […] Of the tested cap sequences Fl-dR-dS-dR (SEQ ID NO: 20) and Fl-dR-G-dS-dR (SEQ ID NO: 21) were determined to be advantageous. Accordingly, for non-fluorescent detection, the cap sequences dR-dS-dR (SEQ ID NO: 35) and dR-G-dS-dR (SEQ ID NO: 36) were determined to be advantageous. […]

Square brackets hold non-standard residues; d marks the D form. Ends that are not written are not given here. fluorescein = fluorescein label at the N-terminus

For “Fl-dR-dS-dR (fluorescein-[dR]-[dS]-[dR])”, the “detection via LC/MS (normalized relative intensities of the peptide reporters)” value was “advantageous”.

As for “Fl-dR-G-dS-dR (fluorescein-[dR]G[dS][dR])”, the “detection via LC/MS (normalized relative intensities of the peptide reporters)” value is “advantageous”.

Values taken from patent US11703510B2, “Methods and products for in vivo enzyme profiling” (Massachusetts Institute of Technology, priority 2009, dated 2023).
